Blank lines part the entries; values can stand above or below the molecule they belong to.
How the values were obtained:
[1] = test system: PLAP expression AR42J cells; experiment: β cell differentiation promoting activity using human placenta alkaline phosphatase expression AR42J cells, Example 20; assay type: cell-based; conditions: 5 days incubation, read-out: BTC activity EC50
Procedure: 100 μL of these suspensions were inoculated to 96 well plates and incubated for 5 days at 37° C. in carbon dioxide gas incubators (5% carbon dioxide gas, 95% air). After 5 days, the culture supernatant were treated for 30 minutes at 65° C., and 50 μL was then added to 96-well microplates containing 50 μL of 2×SEAP (2M diethanolamine, 1 mM MgCl2, 20 mM homoarginine). 10 μL of 20 mg/mL p-nitrophenylphosphoric acid (Sigma) was added, and a reaction was brought about for 16 hours at 37° C. The ratio between EGF activity and the BTC activity of all the muteins decreased to about 5% of that of the Met-80 residue betacellulin, and was about the same as that of the Met-76 residue betacellulin, with no apparent influence by the N terminal deletion.

[2] = test system: AR42J cells; experiment: β cell differentiation promoting activity using AR42J cells (anti-insulin immunofluorescence), Example 9; assay type: cell-based; conditions: 5 days incubation, anti-insulin antibody/FITC staining (FIG. 5)
Excerpt: Cells of the AR42J cell line derived from pancreatic cancer induced by chemical carcinogens (Christophe, Am. J. Physiol., 266: G963 (1994)) were suspended to a concentration of 10^5 cells/mL using Dulbecco's modified Eagle MEM medium containing 10% fetal calf serum and the Met-77 residue betacellulin prepared in Example 3, the Met-76 residue betacellulin prepared in Example 6, or the Met-80 residue betacellulin prepared in accordance with the method in Japanese Unexamined Patent Application (Kokai) H10-191989. 500 μL of these suspensions were inoculated to chamber slides and incubated for 5 days at 37° C. in carbon dioxide gas incubators (5% carbon dioxide gas, 95% air). After 5 days, the cells were washed once with PBS, fixed in 10% formaldehyde, and treated for 5 min with 0.1% Triton X-100. Block Ace (Snow Brand, Japan) was then added for 40 minutes of blocking at room temperature. Anti-insulin antibodies (by Advanced Immunochemicals) diluted with 10% Block Ace were added, and a reaction was performed for 40 minutes at room temperature. 0.1% Triton X-100 was added, the reaction solution was allowed to stand for 5 minutes at room temperature, and the cells were then washed three times with PBS. FITC (fluorescein isothiocyanate) labeled anti-mouse IgG antibodies (Cappel) diluted with 10% Block Ace were added, and a reaction was brought about for 40 minutes. 0.1% Triton X-100 was added, the reaction solution was allowed to stand for 5 minutes, the cells were then washed three times with PBS, and they were then observed under a fluorescent microscope.

[3] = test system: PLAP expression AR42J cells; experiment: Selection of PLAP expression AR42J clones: alkaline phosphatase activity with and without betacellulin; assay type: cell-based; conditions: 20 ng/mL Met-80 residue betacellulin, 4 days culture
Procedure: (§1) The differentiation promoting activity into β cells was also determined using AR42J cells transformed with the vector having alkaline phosphatase which had been ligated as a reporter downstream of the insulin promoter. Specifically, cells which have differentiated into β cells by addition of betacellulin produce alkaline phosphatase. As a result, by assaying the alkaline phosphatase activity, the differentiation promoting activity into β cells can be quantitatively assayed.
The pMCneopolyA plasmid (Stratagene) containing the neor gene of TnS and the PLAP expression plasmid pTB1898 were simultaneously introduced into AR42J cells using the transfection reagent TransIT™-LT1 (Mirus, PenVera Corporation). The plasmid introduced cells were then cultured for 2 days in DMEM supplemented with 10% fetal calf serum, and the culture was then continued in selection medium supplemented with 800 μg/mL G418 (geneticin, Gibco BRL). Clones were isolated by limiting dilution of cells growing with G418 resistance.
Cells of each clone were seeded to 24 well plates and cultured for 4 days with and without the addition of 20 ng/mL Met-80 residue betacellulin. The supernatant was collected and heat treated for 30 minutes at 65° C., and the alkaline phosphatase activity in the media was then assayed. Clones showing increased alkaline phosphatase activity with the addition of 80-residue betacellulin were selected.

[4] = target: T1, EGF receptor (A431 cells, high EGF receptor expression line) (Homo sapiens, UniProt P00533); experiment: EGF binding assay using A431 cells (inhibition of 125I-EGF binding); conditions: for IC50: A431 cells, 0.25 nM 125I-EGF, 90 minutes at 4° C.; for EGF/BTC relative to Met-BTC80: ratio between EGF activity and BTC activity, Met-BTC80 = 100%
T1 construct: human squamous epithelial carcinoma cells A431 (high EGF receptor expression line); endogenous in cells; host or cells: A431 human squamous epithelial carcinoma cells (intact, adherent)
Procedure: Cell growth promoting activity was assayed by means of the inhibiting activity of binding to ^125I-EGF using human squamous epithelial carcinoma cells A431 (high EGF receptor expression line).
Specifically, 100 μL of A431 cells suspended to a concentration of 10^5 cells/mL using Dulbecco's modified Eagle MEM (DMEM) medium supplemented with 10% fetal calf serum were inoculated to 96 well plates and cultured for 2 days at 37° C. in carbon dioxide gas incubators (5% carbon dioxide gas and 95% air). […] The mixtures were allowed to stand for 90 minutes at 4° C., and then washed 3 times with 200 μL of binding medium, and the cells were lysed in 200 μL of 0.1 N sodium hydroxide aqueous solution containing 1% SDS. The cell lysate was then transferred to scintillation vials, 1 mL of Scintillator A (Wako Pure Chemicals) was added, and the inhibiting activity of binding to ^125I-EGF was assayed with a scintillation counter.

[5] = target: T2, EGF receptor on human squamous epithelial carcinoma cells A431 (human, UniProt P00533 25-1210); experiment: competition with 0.25 nM 125I-EGF on A431 cells
T2 construct: whole, on cells; also called A431 cells (high EGF receptor expression line)
Procedure: The mixtures were allowed to stand for 90 minutes at 4° C., and then washed 3 times with 200 μL of binding medium, and the cells were lysed in 200 μL of 0.1 N sodium hydroxide aqueous solution containing 1% SDS.

[6] = test system: AR42J cells; experiment: β cell differentiation promoting activity using AR42J cells (anti-insulin immunofluorescence), Example 26; assay type: cell-based; conditions: 5 days incubation
Procedure: Cells of the AR42J cell line derived from pancreatic cancer induced by chemical carcinogens (Christophe, Am. J. Physiol., 266: G963 (1994)) were suspended to a concentration of 10^5 cells/mL in Dulbecco's modified Eagle MEM medium containing 10% fetal calf serum and one of hBTC50, Mutein A, Mutein B, or the 80-residue betacellulin (hBTC80) prepared in accordance with the method in Japanese Unexamined Patent Application (Kokai) H10-191989. 500 μL of these suspensions was inoculated on chamber slides and incubated for 5 days at 37° C. in carbon dioxide gas incubators (5% carbon dioxide gas, 95% air). After 5 days, the cells were washed once with PBS, fixed in 10% formaldehyde, and treated for 5 min with 0.1% Triton X-100. Block Ace (Snow Brand, Japan) was then added for 40 minutes of blocking at room temperature. Anti-insulin antibodies (by Advanced Immunochemicals) diluted with 10% Block Ace were added, and reacted for 40 minutes at room temperature. 0.1% Triton X-100 was added, the reaction solution was allowed to stand for 5 minutes at room temperature, and the cells were then washed three times with PBS. FITC (fluorescein isothiocyanate) labeled anti-mouse IgG antibodies (Cappel) diluted with 10% Block Ace were added, and a reaction was brought about for 40 minutes. 0.1% Triton X-100 was added, the reaction solution was allowed to stand for 5 minutes, the cells were then washed three times with PBS, and they were then observed under a fluorescent microscope.

[7] = test system: PLAP expression AR42J cells; experiment: β cell differentiation promoting activity using PLAP expression AR42J cells, Example 12; assay type: cell-based; conditions: 5 days, varying concentrations (FIG. 6)
Procedure: as §1
The PLAP expression AR42J cells constructed in Example 11 were suspended to a concentration of 10^5 cells/mL using Dulbecco's modified Eagle MEM medium containing 10% fetal calf serum and varying concentrations of the Met-77 residue betacellulin prepared in Example 3, the Met-76 residue betacellulin prepared in Example 6, or the Met-80 residue betacellulin prepared in accordance with the method in Japanese Unexamined Patent Application (Kokai) H10-191989. 100 μL of these suspensions were inoculated to 96 well plates and incubated for 5 days at 37° C. in carbon dioxide gas incubators (5% carbon dioxide gas, 95% air). After 5 days, the supernatant was taken and treated for 30 minutes at 65° C., and 50 μL was added to 96-well microplates containing 50 μL of 2×SEAP (2M diethanolamine, 1 mM MgCl2, 20 mM homoarginine). […]

Molecule: BTC2-76: betacellulin mutein lacking one N terminal residue and four C terminal residues, SEQ ID NO: 37
EC50 [1]: 120 pM

Molecule: BTC24-76: betacellulin mutein lacking 23 N terminal residues and four C terminal residues, SEQ ID NO: 38
EC50 [1]: 30 pM

B1: Met-76 residue betacellulin (ligand)
chain: MDGNSTRSPETNGLLCGDPEENCAATTTQSKRKGHFSRCPKQYKHYCIKGRCRFVVAEQTPSCVCDEGYIGARCERV
notes: Lacks the four C-terminal residues (Asp Leu Phe Tyr); also called Met-BTC76; BTC1-76
IC50 [5]: 95100 pM

B3: Met-77 residue betacellulin: 77 residue betacellulin lacking three C terminal residues (SEQ ID NO: 1) with N terminal Met (protein)
chain: DGNSTRSPETNGLLCGDPEENCAATTTQSKRKGHFSRCPKQYKHYCIKGRCRFVVAEQTPSCVCDEGYIGARCERVD
modifications: N-terminal Met; Human
Differentiation into insulin-producing β cells (stained cells under fluorescent microscope) [2]: cells which had differentiated into insulin-producing β cells were found | Promoting activity in inducing differentiation compared with Met-80 residue betacellulin [7]: virtually the same promoting activity in inducing differentiation as the Met-80 residue betacellulin

Second part, led by results:

IC50 [4]: 1200 pM | EGF/BTC relative to Met-BTC80 [4]: 100.0% | EC50 [1]: 70 pM
Molecule: Met-BTC80: 80 residue human betacellulin (SEQ ID NO: 35) with N terminal Met, prepared by the method of Kokai H10-191989 [reference compound]
Differentiation into insulin-producing β cells (stained cells under fluorescent microscope) [2]: cells which had differentiated into insulin-producing β cells were found | PLAP activity (A 405), BTC added ([3]; clone AR1898-033, no BTC added: 0.034): 0.366 A 405 | PLAP activity (A 405), BTC added ([3]; clone AR1898-053, no BTC added: 0.008): 0.089 A 405 | PLAP activity (A 405), BTC added ([3]; clone AR1898-0192, no BTC added: 0.077): 0.752 A 405

IC50 [5]: 1200 pM
B2: Met-80 residue betacellulin (ligand)
chain: MDGNSTRSPETNGLLCGDPEENCAATTTQSKRKGHFSRCPKQYKHYCIKGRCRFVVAEQTPSCVCDEGYIGARCERVDLFY
notes: Prepared in E. coli by the method of Japanese Kokai H10-191989; The N-terminal Met is retained; also called Met-BTC80; hBTC80
Differentiation into insulin-producing β cells (stained cells under fluorescent microscope) ([6]; anti-insulin antibody/FITC staining): cells which had differentiated into insulin-producing β cells, were found | Incidence of insulin-producing cells ([6]; comparison between the proteins): no differences in the incidence of insulin-producing cells

IC50 [4]: 95100 pM | EGF/BTC relative to Met-BTC80 [4]: 5.4% | EC50 [1]: 300 pM
B4: Met-BTC76: 76 residue betacellulin lacking four C terminal residues (SEQ ID NO: 2) with N terminal Met (protein)
chain: DGNSTRSPETNGLLCGDPEENCAATTTQSKRKGHFSRCPKQYKHYCIKGRCRFVVAEQTPSCVCDEGYIGARCERV
modifications: N-terminal Met; Human
Differentiation into insulin-producing β cells (stained cells under fluorescent microscope) [2]: cells which had differentiated into insulin-producing β cells were found | Promoting activity in inducing differentiation compared with Met-80 residue betacellulin [7]: virtually the same promoting activity in inducing differentiation as the Met-80 residue betacellulin

Reference: patent US6825165B1, “Betacellulin modification” (Takeda Chemical Industries, Ltd., priority 1998, dated 2004)
